Test results taken from US20200031919A1 (SUZHOU KANOVA BIOPHARMACEUTICAL, published 2020).
Substitutions are numbered along the chain they refer to. Read-outs that look alike come from different tables or passages of the source. Values belong to the binder of their own block, whether it stands above or below them.

Assays:
human IL-17A [1] = target: T1, human IL-17A (human, UniProt Q16552 24-155); experiment: cell-based or functional assay
T1 sequence (looked up): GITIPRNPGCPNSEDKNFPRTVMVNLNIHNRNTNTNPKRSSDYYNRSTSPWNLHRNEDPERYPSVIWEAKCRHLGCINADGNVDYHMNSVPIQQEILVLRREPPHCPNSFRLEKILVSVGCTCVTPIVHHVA

human IL-17F [2] = target: T2, human IL-17F (human, UniProt Q96PD4 31-163); experiment: cell-based or functional assay
T2 sequence (looked up): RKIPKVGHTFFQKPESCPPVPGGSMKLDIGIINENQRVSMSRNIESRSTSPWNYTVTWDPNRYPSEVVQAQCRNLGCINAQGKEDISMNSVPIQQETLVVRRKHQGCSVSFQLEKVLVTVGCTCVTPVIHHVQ

IL-17A/F heterodimer [3] = target: T3, IL-17A/F heterodimer (UniProt Q16552 24-155; Q96PD4 31-163, limits assumed); experiment: cell-based or functional assay
T3 sequence (looked up) 1: T1 sequence (looked up)
T3 sequence (looked up) 2: T2 sequence (looked up)

human IL-17D = target: T4, human IL-17D (human, UniProt Q8TAD2 18-202, limits assumed); experiment: ELISA, cytokine coated at 2 µg/ml
T4 construct: Commercial recombinant protein
T4 sequence (looked up): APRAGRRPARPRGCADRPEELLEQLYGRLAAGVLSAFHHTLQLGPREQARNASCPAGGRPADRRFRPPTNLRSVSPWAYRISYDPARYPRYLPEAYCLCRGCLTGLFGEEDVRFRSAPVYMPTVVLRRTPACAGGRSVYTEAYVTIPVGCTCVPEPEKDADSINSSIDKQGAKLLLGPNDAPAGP
Method: (§1) MaxiSorp 96-well plates (NUNC # 449824, www.thermofisher.com) were coated with 2 μg/ml human IL-17A (Cell Signaling #89285F, www.cellsignal.com), human IL-17F (Cell Signaling #8906LC, www.cellsignal.com), human IL-17B (Peprotech #200-28, www.peprotech.com), human IL-17C (R&D systems #1234-IL-025/CF, www.rndsystems.com), human IL-17D ((Peprotech #200-27, www.peprotech.com), human IL-17E (R&D systems #1258-IL-025/CF, www.rndsystems.com) in 1× PBS (50 μl/well) respectively. Plates were incubated at 4° C. overnight. Coating solution was removed and plates were washed once with 200 μl/well PBST (1× PBS with 0.05% tween-20). Then 200 μl/well blocking buffer (1× PBS with 0.05% tween-20, 3% BSA) was added and incubated at room temperature for 1 hour. Blocking buffer was removed and plates were washed three times with 200 μl/well PBST (1× PBS with 0.05% tween-20). The anti-IL17A/F antibody, hIgG VH1-1/VL5, was diluted to […], 0.000102, 0.000034 μg/ml by 1× PBS and added to the plates (50 μl/well). Plates were incubated at room temperature for 2 hours. Antibodies in the wells were removed and plates were washed three times with 200 μl/well PBST (1× PBS with 0.05% tween-20). Goat anti-human IgG(H&L)—HRP secondary antibody (Jackson Immuno Research #109-035-088, www.jacksonimmuno.com) was diluted 1:5000 in 1× PBS and added to each well (50 μl/well). Plates were incubated at room temperature for 1 hour. Secondary antibody was removed and plates were washed seven times with 200 μl/well PBST (1× PBS with 0.05% tween-20). 50 μl/well TMB (eBioscience # 85-00-4201-56, www.ebioscience.com) was added and plates were incubated at room temperature for several minutes. Then 50 μl/well 2N H₂SO₄ was added to stop the reaction. Plates were read at 450 nm. […] So, the hIgG VH1-1/VL5 antibody has binding specificity to human IL-17A and 17F and has no cross-reactivity to other IL-17 family members.

human IL-17E = target: T5, human IL-17E (human, UniProt Q9H293 33-177); experiment: ELISA, cytokine coated at 2 µg/ml
T5 construct: Commercial recombinant protein; also called IL-25
T5 sequence (looked up): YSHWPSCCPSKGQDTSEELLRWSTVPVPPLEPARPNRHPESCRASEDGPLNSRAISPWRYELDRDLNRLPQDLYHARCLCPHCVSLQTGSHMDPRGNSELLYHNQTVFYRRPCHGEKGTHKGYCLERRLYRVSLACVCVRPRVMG
Method: as §1

human IL-17B = target: T6, human IL-17B (human, UniProt Q9UHF5 21-180); experiment: ELISA, cytokine coated at 2 µg/ml
T6 construct: Commercial recombinant protein
T6 sequence (looked up): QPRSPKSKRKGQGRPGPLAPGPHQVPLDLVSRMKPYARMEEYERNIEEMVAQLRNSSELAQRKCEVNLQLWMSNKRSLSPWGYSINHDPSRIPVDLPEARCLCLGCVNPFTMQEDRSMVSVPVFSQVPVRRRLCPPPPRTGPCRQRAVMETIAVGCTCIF
Method: as §1

human IL-17C = target: T7, human IL-17C (human, UniProt Q9P0M4 19-197); experiment: ELISA, cytokine coated at 2 µg/ml
T7 construct: Commercial recombinant protein
T7 sequence (looked up): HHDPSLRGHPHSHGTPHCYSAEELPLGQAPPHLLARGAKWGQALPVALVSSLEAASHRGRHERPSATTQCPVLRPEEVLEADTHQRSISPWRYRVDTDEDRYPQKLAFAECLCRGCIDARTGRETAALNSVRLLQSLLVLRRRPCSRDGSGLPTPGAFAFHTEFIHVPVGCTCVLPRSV
Method: as §1

human IL-17A [4] = target: T1, human IL-17A; experiment: ELISA, human IL-17A coated at 2 µg/ml
Method: (§2) MaxiSorp 96-well plates (NUNC # 449824, www.thermofisher.com) were coated with 2 μg/ml human IL-17A (Cell Signaling #89285F, www.cellsignal.com), human IL-17F (Cell Signaling #8906LC, www.cellsignal.com), human IL-17B (Peprotech #200-28, www.peprotech.com), human IL-17C (R&D systems #1234-IL-025/CF, www.rndsystems.com), human IL-17D ((Peprotech #200-27, www.peprotech.com), human IL-17E (R&D systems #1258-IL-025/CF, www.rndsystems.com) in 1× PBS (50 μl/well) respectively. Plates were incubated at 4° C. overnight. Coating solution was removed and plates were washed once with 200 μl/well PBST (1× PBS with 0.05% tween-20). Then 200 μl/well blocking buffer (1× PBS with 0.05% tween-20, 3% BSA) was added and incubated at room temperature for 1 hour. Blocking buffer was removed and plates were washed three times with 200 μl/well PBST (1× PBS with 0.05% tween-20). The anti-IL17A/F antibody, hIgG VH1-1/VL5, was diluted to 10, 3.33, 1.11, 0.37, 0.123, 0.041, 0.0137, 0.0046, 0.0015, 0.00031, 0.000102, 0.000034 μg/ml by 1× PBS and added to the plates (50 μl/well). Plates were incubated at room temperature for 2 hours. Antibodies in the wells were removed and plates were washed three times with 200 μl/well PBST (1× PBS with 0.05% tween-20). […] Plates were read at 450 nm. […]

human IL-17F [5] = target: T2, human IL-17F; experiment: ELISA, human IL-17F coated at 2 µg/ml
Method: as §2

human IL-17A [6] = target: T1, human IL-17A; experiment: ELISA, human IL-17A coated at 2 µg/ml; remark: listed apart in the source
Method: as §2

human IL-17F [7] = target: T2, human IL-17F; experiment: ELISA, human IL-17F coated at 2 µg/ml; remark: listed apart in the source
Method: as §2

cynomolgus IL-17A = target: T8, cynomolgus IL-17A (cynomolgus, UniProt A0A2K5TTB0 24-155); experiment: ELISA, cynomolgus IL-17A coated at 2 µg/ml
T8 sequence: T1 sequence (looked up) with T3A, P8S, N34S, I77V, N78K, P104R
Method: (§3) Human IgG1 (hIgG1) was used as a control antibody. EC50 values were calculated by GraphPad Prism.
(§4) The binding of anti-IL-17A/F antibody to cynomolgus IL-17A and IL-17F was determined by ELISA. Assay was performed in the same method of Example 7, except that cynomolgus IL-17A (Gene ID: XM 005552759.2, in-house production according to standard molecular biology method, Carson S, Molecular Biology Techniques, 2012) and IL-17F (Gene ID: XM_005552757.2, in-house production according to standard molecular biology method, Carson S, Molecular Biology Techniques, 2012) were used to replace human IL-17A and F, respectively.

cynomolgus IL-17F = target: T9, cynomolgus IL-17F (cynomolgus, UniProt G7P4V0 31-163); experiment: ELISA, cynomolgus IL-17F coated at 2 µg/ml
T9 construct: also called cynomolgus 17F
T9 sequence: T2 sequence (looked up) with G22E, I29T, R73K, N74H, V100L, I129V
Method: as §3, §4

human IL-17A [8] = target: T1, human IL-17A; experiment: SPR (Biacore T200), antibody captured by anti-human Fc, IL-17 as analyte
Method: Anti-human Fc gamma specific antibody (Jackson Immuno Research, Lot no. 124448, Code. 109-008-098) was immobilized onto the sensor chip using amine coupling method. Four antibodies secreted to the culture medium plus the parental antibody were injected and captured by anti-human Fc antibody via Fc (capture phase) individually. After equilibration, IL-17 was injected for 300 seconds (association phase) followed by the injection of running buffer for 1200s (dissociation phase). Responses of reference flow cell (flow cell 1) were subtracted from those of humanized antibodies flow cells during each cycle. The surface was regenerated before the injection of another humanized antibody. The process was repeated until all antibodies are analyzed. The off-rates of humanized antibodies were obtained from fitting the experimental data locally to 1:1 interaction model using the Biacore T200 evaluation software. The antibodies were ranked by their dissociation rate constants (off-rates, Kd). The binders that interact with IL-17 with similar affinity to parental antibody were selected.

human IL-17A [9] = target: T1, human IL-17A; experiment: blocking ELISA: 0.5 ug/ml hIL-17A coated, antibody titrated, then 10 ug/ml hIL17RA-mIgG2aFc (blocked ligand partner); OD450 falls from about 1.3 to a lower plateau of about 0.67
Method: (§5) The effect of the anti-IL17A/F antibody (produced in Example 2) on the binding of IL-17A, IL-17F or IL17A/F to the IL-17 receptor was tested by ELISA. IL-17A, IL-17F or IL-17A/F was coated in 96 well plate with 50 μl/well protein solution (protein concentration was […]) at 4° C. overnight. The wells were blocked with 1% BSA in PBST (tween 0.05%) by 200 μl/well at room temperature for 1 hour. The wells were washed 3 times with PBST. The anti-IL17A/F antibody and isotype control antibody human IgG1 (Biolegend cat# 403102) were diluted by PBS from 30 μg/ml down to 0.0005 μg/ml ([…]). The antibodies were added into the corresponding wells (50 μl/well) and incubated at room temperature for 4 hours. The wells were washed 3 times with PBST. hIL17RA-mIgG2aFc (10 μg/ml, in-house production according to standard molecular biology technology, Carson S, Molecular Biology Techniques, 2012) were added into each well (50 μl/well) and incubated at room temperature for 1 hour. The wells were washed 3 times with PBST. Goat anti-human IgG-HRP (1:5000 in PBS, EASYBIO Cat# BE0102) were added into each well (50 μl/well) and incubated at room temperature for 30 min. The wells were washed 6 times with PBST. […] The plate was read at 450 nm and 570 nm.

human IL-17F [10] = target: T2, human IL-17F; experiment: blocking ELISA: 0.5 ug/ml hIL-17F coated, antibody titrated, then 10 ug/ml hIL17RA-mIgG2aFc (blocked ligand partner); OD450 falls from about 1.35 to a lower plateau of about 0.87
Method: as §5

IL-17A/F heterodimer [11] = target: T3, IL-17A/F heterodimer; experiment: blocking ELISA: 0.5 ug/ml hIL-17A/F heterodimer coated, antibody titrated, then 10 ug/ml hIL17RA-mIgG2aFc (blocked ligand partner); OD450 falls from about 1.9 to a lower plateau of about 0.6
Method: as §5

- IC50 of inhibition of IL-17A-induced IL-6 production in HFF-1 cells (human IL-17A [1]): 1.73 nM
- IC50 of inhibition of IL-17F-induced IL-6 production in HFF-1 cells (human IL-17F [2]): 1.77 nM
- IC50 of inhibition of IL-17A/F heterodimer-induced IL-6 production in HFF-1 cells (IL-17A/F heterodimer [3]): 0.99 nM
- binding result (human IL-17D): no binding
- binding result (human IL-17E): no binding
- binding result (human IL-17B): no binding
- binding result (human IL-17C): no binding
- EC50 (human IL-17A [4]): 0.039 nM
- EC50 (human IL-17F [5]): 0.042 nM
- EC50 (human IL-17A [6]): 0.046 nM
- EC50 (human IL-17F [7]): 0.047 nM
- EC50 (cynomolgus IL-17A): 0.06 nM
- EC50 (cynomolgus IL-17F): 0.18 nM
- Kd (human IL-17A [8]): 0.29 nM
- koff (human IL-17A [8]): 0.00059 s⁻¹
- kon (human IL-17A [8]): 2e+06 M⁻¹ s⁻¹
- IC50 (human IL-17A [9]): 0.72 nM
- IC50 (human IL-17F [10]): 0.67 nM
- IC50 (IL-17A/F heterodimer [11]): 0.45 nM
B1: anti-IL17A/F antibody hIgG VH1-1/VL5 (antibody, V domains shown)
VH: QFQLVQSGAEVKKPGASVKVSCKASGYTFTDYNLNWVRQAPGKGLEWMGVIHPDYGTTSYNQKFKDRVTMTVDTSTSTVYMELSSLRSEDTAVYYCVRYDYGDAMDYWGQGTLVTVSS
VL: DIVMTQSPLSLSVTPGQPASISCRSSQSLVHSNGNTYLHWYLQKPGQPPQLLIYKVSNRFSGVPDRFSGSGSGTDFTLKISRVEAEDVGVYYCSQSTHVPLTFGQGTKLEIKR
notes: also called VH1-1/VL5 mAb; hIgGc VH1-1/VL5

- Kd (human IL-17A [8]): 0.84 nM
- koff (human IL-17A [8]): 0.0018 s⁻¹
- kon (human IL-17A [8]): 2.2e+06 M⁻¹ s⁻¹
B2: humanized anti-IL17A/F antibody VH1-1/VL2-1 (antibody, V domains shown)
VH: B1 VH
VL: DIVMTQTPLSSSVTLGQPASISCRSSQSLVHSNGNTYLHWLQQRPGQPPRLLIYKVSNRFSGVPDRFSGSGAGTDFTLKISRVEAEDVGVYYCSQSTHVPLTFGQGTKLEIK
notes: It was tested as a humanized IgG captured through its Fc by an anti-human Fc antibody
